In the data set the target is mAb0077(OA).
mAb0077(OA), sequence (chain, as listed by the source, chain 1 of 3): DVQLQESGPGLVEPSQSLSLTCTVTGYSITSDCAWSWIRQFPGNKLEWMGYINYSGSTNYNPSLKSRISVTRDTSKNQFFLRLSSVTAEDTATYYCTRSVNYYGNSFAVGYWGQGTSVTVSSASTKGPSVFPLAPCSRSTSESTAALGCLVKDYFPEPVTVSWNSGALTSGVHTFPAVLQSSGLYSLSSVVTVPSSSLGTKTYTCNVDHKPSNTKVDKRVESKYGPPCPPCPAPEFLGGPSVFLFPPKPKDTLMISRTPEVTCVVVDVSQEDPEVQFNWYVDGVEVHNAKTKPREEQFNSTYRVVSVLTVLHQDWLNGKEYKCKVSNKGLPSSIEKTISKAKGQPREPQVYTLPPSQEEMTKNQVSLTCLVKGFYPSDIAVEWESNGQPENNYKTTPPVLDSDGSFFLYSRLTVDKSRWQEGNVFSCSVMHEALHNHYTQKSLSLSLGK
mAb0077(OA), sequence (chain, as listed by the source, chain 2 of 3): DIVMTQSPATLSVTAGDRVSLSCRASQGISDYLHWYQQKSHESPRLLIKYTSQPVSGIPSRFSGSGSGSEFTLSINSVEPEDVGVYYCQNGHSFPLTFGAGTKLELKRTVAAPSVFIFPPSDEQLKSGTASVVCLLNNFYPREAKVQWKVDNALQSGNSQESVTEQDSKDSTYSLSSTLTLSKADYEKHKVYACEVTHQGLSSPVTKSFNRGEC
mAb0077(OA), sequence (chain, as listed by the source, chain 3 of 3): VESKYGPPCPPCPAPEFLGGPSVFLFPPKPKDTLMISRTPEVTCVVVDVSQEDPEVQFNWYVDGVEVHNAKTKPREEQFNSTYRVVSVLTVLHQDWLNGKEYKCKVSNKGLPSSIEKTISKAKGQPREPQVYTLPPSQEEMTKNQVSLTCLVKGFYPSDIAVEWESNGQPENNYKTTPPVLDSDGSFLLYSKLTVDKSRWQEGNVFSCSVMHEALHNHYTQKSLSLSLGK

B1: recombinant human activated Factor VII (FVIIa) (protein)
chain 1: ANAFLEELRPGSLERECKEEQCSFEEAREIFKDAERTKLFWISYSDGDQCASSPCQNGGSCKDQLQSYICFCLPAFEGRNCETHKDDQLICVNENGGCEQYCSDHTGTKRSCRCHEGYSLLADGVSCTPTVEYPCGKIPILEKRNASKPQGR
chain 2: IVGGKVCPKGECPWQVLLLVNGAQLCGGTLINTIWVVSAAHCFDKIKNWRNLIAVLGEHDLSEHDGDEQSRRVAQVIIPSTYVPGTTNHDIALLRLHQPVVLTDHVVPLCLPERTFSERTLAFVRFSLVSGWGQLLDRGATALELMVLNVPRLMTQDCLQQSRKVGDSPNITEYMFCAGYSDGSKDSCKGDSGGPHATHYRGTWYLTGIVSWGQGCATVGHFGVYTRVSQYIEWLQKLMRSEPRPGVLLRAPFP
As for B1, the Km of FX activation by FVIIa/PS:PC with 200 nM antibody was determined as 0.089 µM, the Km of FX activation by TF-FVIIa with 200 nM antibody was 0.0039 µM and the kcat of FX activation by FVIIa/PS:PC with 200 nM antibody was determined as 0.00026 s⁻¹.

These data come from patent publication US20220064329.
